Experimental data published in US20120148657A1, “Lipoxygenase and Its Use in Wound Healing” (priority 2009, published 2012).

What was measured:
epithelial Axolotl cells = assay: In vitro wound healing model: proliferation of epithelial cells from Axolotl skin biopsies (Celltiter blue); type: cell-based; details: for Epithelial cell proliferation: 1 μM MK-886 and 60 μM NDGA, respectively, plates incubated two days, Celltiter blue fluorescence
Text: In order to investigate the influence of endogenous lipoxygenase activity on the migration and proliferation of epithelial Axolotl cells, skin biopsies with 2 mm diameter were taken form Axolotl tail skin. The skin biopsies were placed in cell culture dishes coated with bovine collagen I to allow for cell migration and proliferation in an in vitro wound healing model. The wound healing is observable by […] of epithelial cell growing from borders of the skin biopsies. The proliferation rates were determined by addition of Celltiter blue (Promega), an assay for detection of metabolic activity as an indirect measurement of cell proliferation based on Resazurin/Resofurin. Two known lipoxygenase inhibitors for the human lipoxygenase were used to examine the effect of lipoxygenase activity on cell proliferation (1 μM MK-886 and 60 μM NDGA, respectively). […] That is, the plates were incubated for two days to ensure proliferation of epidermal cells. Then, the number of metabolizing cells was determined by Resozuran-Resofurin exchange (Celltiter blue, Promega, Madison, USA). 2 μl Resozuran solution was added to each well for two hours and the fluorescence was read in a multiplate reader at 520 nm. The detected fluorescence was expressed in relative fluorescent units (RFU), means and standard deviation were calculated from triplicates with Microsoft Excel and tested for statistical significance using student's T-test. Experiments were repeated at three independent times to ensure reproducibility.

[1] = test system: transiently transfected cell populations; assay: Scratch assay of transiently transfected cell populations treated with lipoxygenase inhibitor; type: cell-based, human
Procedure: (§1) The coding sequence of AmbLOXe was subcloned in frame into the mammalian expression vector pTriEx-1 (Novagen). Plasmids were purified from transformed DH5α using the GenElute plasmid purification Kit (Sigma). Human osteosarcoma cells U2-OS or human spontaneously immortalized keratinocyte cells HaCaT (ATCC) were seeded into 100 mm cell culture dishes and grown over night to 40-50% confluence. Cells were transiently transfected with Fugene6 (Roche, Mannheim, Germany) following the instructions of the manufacturer. Briefly, 18 μl of the reagent were diluted with 600 μl serum-free medium and incubated at room temperature. After 5 min 6 μg of a 1:1 mixture of pTriEx-AmbLOXe and pEGFP-C3 (Clontech), which encodes Green Fluorescent Protein (GFP), were supplemented and incubated for additional 15 min. The transfection complex was added to the cell dishes in a dropwise manner. Cells were incubated for 24 hours before being analyzed for transfection efficiency by detection of GFP positive cells in a flow cytometer (FC-500, Beckman-Coulter, Fullerton, Calif., USA). Only cell populations were used in which about 25% GFP positive cells (U2-OS) or 12% GFP positive cells (HaCaT) could be detected. The cells were seeded into a six well plate until they reached confluence. The monolayer was then wounded with a disposable plastic pipet tip (10 μl-100 μl volume). The cells ere incubated in DMEM High Glucose (Biochrom, Berlin, Germany) supplemented with 10% FCS). The scratches were documented by microphotography and incubated for 16 hours. Then the scratches were again photographed and the remaining areas were measured using CellD (Olympus) software program. All experiments were carried out in quadruplicates and repeated at four independent times. Means and standard deviation were calculated and tested for statistical significance with ANOVA followed by Bonferroni's posthoc test.
In order to determine the influence of lipoxygenase inhibitor on the transiently transfected cell populations, cells transfected with empty vector (control) and scratched cell monolayers transfected with vectors containing human 12R LOX and AmbLOXe, respectively, received an overnight treatment with NHGA.

U2-OS cells = assay: Scratch assay for wound closure in transfected U2-OS cells; type: cell-based, human; details: for perimeter size of remaining scratch area (mean value): U2-OS cell populations transfected; for perimeter size of remaining scratch area (mean value) / wound closure in scratch assay (FIG. 2): after 16 hours incubation; for scratch width reduction: U2-OS cells transfected with expression plasmid, 16 hours incubation; for wound closure in scratch assay (FIG. 2): U2-OS cells transfected
Text: To compare the effect of epidermal lipoxygenase of human and Axolotl origin, a human cell line, U2-OS was transfected with expression plasmids encoding for the two types of lipoxygenase (pAmbLOXe, phuLOX) in combination with a vector encoding for GFP (pEGFP-C3, Clontech) as a reporter for transfection efficiency. Controls were transfected with empty vector and pEGFP-C3.
as §1
A cDNA fragment coding for full-length AmbLOXe was cloned in frame into the mammalian expression vector pTriEx-1 and transfected together with an expression plasmid for EGFP into the U2-OS cell line to evaluate a possible influence of AmbLOXe expression in a mammalian model system. Only cell populations with a transfection efficiency of about 25% (U2-OS), respectively 12% (HaCaT) were used for all assays and seeded to confluent monolayers which subsequently were wounded with scratches.
The remaining scratch areas photographed after 16 hours incubation were used to determine the influence of AmbLOXe expression on mammalian cell migration. While no AmbLOXe expression could be observed in U2-OS cell populations transfected with an empty vector, and in U2-OS cell populations transfected with huLOX, AmbLOXe expression was detected in U2-OS cell populations transfected with AmbLOXe encoding plasmids. A perimeter size reduction to a mean value of 24806.26 μm in the cell populations transfected with an empty vector was found; while cell populations containing AmbLOXe expressing cells and cell populations containing cells expressing human 12R LOX reduced the photographed scratch area to mean values of 517.46 μm and 2086.86 μm, respectively.

[2] = test system: HaCaT keratinocyte cell line; assay: HaCaT monolayer scratch assay (cell migration); type: cell-based, human; details: HaCaT populations transfected; 16 hours incubation; compared to empty vector (p=0.0035) and huLOX (p=0.028) transfected populations
Procedure: The coding sequence of AmbLOXe was subcloned in frame into the mammalian expression vector pTriEx-1 (Novagen). Plasmids were purified from transformed DH5α using the GenElute plasmid purification Kit (Sigma). Human osteosarcoma cells U2-OS or human spontaneously immortalized keratinocyte cells HaCaT (ATCC) were seeded into 100 mm cell culture dishes and grown over night to 40-50% confluence. Cells were transiently transfected with Fugene6 (Roche, Mannheim, Germany) following the instructions of the manufacturer. Briefly, 18 μl of the reagent were diluted with 600 μl serum-free medium and incubated at room temperature. […] Cells were incubated for 24 hours before being analyzed for transfection efficiency by detection of GFP positive cells in a flow cytometer (FC-500, Beckman-Coulter, Fullerton, Calif., USA). Only cell populations were used in which about 25% GFP positive cells (U2-OS) or 12% GFP positive cells (HaCaT) could be detected. […] Then the scratches were again photographed and the remaining areas were measured using CellD (Olympus) software program. […] Means and standard deviation were calculated and tested for statistical significance with ANOVA followed by Bonferroni's posthoc test. […]
As described for the transfected U2-OS populations cellular migration was determined in HaCaT monolayer scratch assays.

[3] = test system: Mice having a full thickness skin wound; assay: Full thickness skin wound animal model (injection of transfected murine embryonic fibroblasts); type: in vivo; details: for wound size: compared to human lipoxygenase, empty vector and untreated groups, C57/BR6 female mice; for wound closure (FIG. 5): determined after day 3 and day 7, transfected murine embryonic fibroblasts
Procedure: That is, murine embryonic fibroblasts were seeded in cell culture dishes to 50% confluence and were transfected with expression plasmids encoding two different types of lipoxygenase (pAmbLOXe, phuLOX), an empty vector was used as control. After 24 hours, the cells were washed and trypsinated. Cells in an amount of 100,000 cells/ml in PBS were resuspended and 200 μl cell suspension was injected into area adjacent to a wound of a full thickness skin wound. Said full thickness skin wound was prepared in advance using mice (C57/BR6 female) where the back was shaved and the skin was disinfected. Thereafter, a full thickness skin wound was set using a 8 mm biopsy punch, resulting in a 50 mm^2 defect. A control group was prepared not treated with any cell suspension. After day 3 and day 7 a photo was taken from the wound and the reduction of wound size was measured and determined statistically.

Molecule	Epithelial cell proliferation (epithelial Axolotl cells)	perimeter size of remaining scratch area (mean value) (U2-OS cells)	scratch width reduction (U2-OS cells)	wound closure in scratch assay (FIG. 2) (U2-OS cells)	wound closure (FIG. 5) [3]	other results
CC(C)c1ccc2c(c1)c(SC(C)(C)C)c(CC(C)(C)C(=O)O)n2Cc1ccc(Cl)cc1 [MK-886]	significantly reduced					effect on the Axolotl epithelial cells compared with NDGA (epithelial Axolotl cells; treatment of MK-886): equal effect
CC(Cc1ccc(O)c(O)c1)C(C)Cc1ccc(O)c(O)c1 (stereo not drawn) [NDGA]	significantly reduced					
CC(Cc1ccc(O)c(O)c1)C(C)Cc1ccc(O)c(O)c1 (stereo not drawn) [NHGA]						scratch area (mean value) ([1]; cell populations expressing AmbLOXe, overnight treatment with NHGA): 4428.33 μm; migration behaviour compared to the solvent treated monolayers ([1]; cells expressing huLOX, overnight treatment with NHGA): no significant differences; migration behaviour compared to the solvent treated monolayers ([1]; empty vector transfected cells, overnight treatment with NHGA): no significant differences
AmbLOXe: epidermal lipoxygenase from axolotl, Seq. ID. Nos. 1 and 2, EMBL Accession No. EU814616; tested by expression plasmid transfection (protein, listed as Ambystoma mexicanum) MVDEYRIKEDRDLGEILLIRLHKGPFSIFPEDNWYCMYVTVTSPGGVIYHFPCYRWIEGYPTVELAEGTAMLSSASNLHVTLKKQRESDLEQRRKVYRWKVYHPSFPKCIDVANNDELDKDAKYSITKTVHFVINKNVSNIAIKLKGFDGRQESWKSFDELKRVYWTLKTAKSEYVSHHWKEDAFFGYQYLNGPDPTLIKRCNKIPGNFPVTDEMVSYSLGASTSLEKELQKGNIYIVDHKMMEGLRANVLNGKQQYMAAPLCLFYRTPKDEVIPLAIQLNQTPGSETPLFLPSDNEWDWILAKIWVRSTSFAFHQAVSHFLRTHVFAEVFCLATLRQLPMAHPLYKLLVPHLRYTLQINVLARERLIGPGGAFDKNTAVGIAGIAELIKRDMETLKYSTLCLPENLQSREVESLPHFYYRDDGMKIWLAIESYVSGIVDYYYKSEESIQKDPELQAWVAEIFKEGFLERKSSGIPSSLETRVELIKYLTMVIFTCSAEHAAVNSGQFDFLSWMPNGPSTMRQPPPKTKGLATMESVLEALPEVGITTNIMTTVWTLSKEPGDMRPLGTYPDEHFTEEGPKQCIRAFQERLSEISREIEHRNASLPIKYNYMNPKVIENSVSI		517.46 μm	89.94%	substantially completed	significant reduction	measured wound scratch (mean value) ([1]; solvent treated cell populations expressing AmbLOXe): 3388.99 μm; remaining scratch perimeter size [2]: significantly smaller; wound size ([3]; day 3): reduced dramatically; wound size ([3]; day 7): reduced dramatically
huLOX: human epidermal lipoxygenase (human 12R LOX) expressed from plasmid phuLOX, comparator (protein, UniProt O75342 1-701, looked up) Arachidonate 12-lipoxygenase, …: MATYKVRVATGTDLLSGTRDSISLTIVGTQGESHKQLLNHFGRDFATGAVGQYTVQCPQDLGELIIIRLHKERYAFFPKDPWYCNYVQICAPNGRIYHFPAYQWMDGYETLALREATGKTTADDSLPVLLEHRKEEIRAKQDFYHWRVFLPGLPSYVHIPSYRPPVRRHRNPNRPEWNGYIPGFPILINFKATKFLNLNLRYSFLKTASFFVRLGPMALAFKVRGLLDCKHSWKRLKDIRKIFPGKKSVVSEYVAEHWAEDTFFGYQYLNGVNPGLIRRCTRIPDKFPVTDDMVAPFLGEGTCLQAELEKGNIYLADYRIMEGIPTVELSGRKQHHCAPLCLLHFGPEGKMMPIAIQLSQTPGPDCPIFLPSDSEWDWLLAKTWVRYAEFYSHEAIAHLLETHLIAEAFCLALLRNLPMCHPLYKLLIPHTRYTVQINSIGRAVLLNEGGLSAKGMSLGVEGFAGVMVRALSELTYDSLYLPNDFVERGVQDLPGYYYRDDSLAVWNALEKYVTEIITYYYPSDAAVEGDPELQSWVQEIFKECLLGRESSGFPRCLRTVPELIRYVTIVIYTCSAKHAAVNTGQMEFTAWMPNFPASMRNPPIQTKGLTTLETFMDTLPDVKTTCITLLVLWTLSREPDDRRPLGHFPDIHFVEEAPRRSIEAFRQRLNQISHDIRQRNKCLPIPYYYLDPVLIENSISI		2086.86 μm	56.75%	has not finished yet	comparable with the control groups	
